According to patent US7790682B1, “Engineered human acidic fibroblast growth factors and associated methods” (The Florida State University Research Foundation, Inc., priority 2003, dated 2010):

B1: SYM6/Δ120-122: SYM6 FGF-1 mutant plus Arg119→Gly/ΔGly120/ΔPro121/ΔArg122 (protein, UniProt P05230 16-155, looked up, variant L44F M67I L73V V109L L111I C117V R119G del120-122)
Fibroblast growth factor 1: FNLPPGNYKKPKLLYCSNGGHFLRILPDGTVDGTRDRSDQHIQFQLSAESVGEVYIKSTETGQYLAIDTDGLVYGSQTPNEECLFLERLEENHYNTYISKKHAEKNWFLGIKKNGSVKGTHYGQKAILFLPLPVSSD
B2: SYM5/ΔΔ: SYM5 FGF-1 mutant plus both Δ104-106 and Δ120-122 deletion mutations (protein, UniProt P05230 16-155, looked up, variant L44F L73V V109L L111I C117V A103G del104-106 R119G del120-122)
Fibroblast growth factor 1: FNLPPGNYKKPKLLYCSNGGHFLRILPDGTVDGTRDRSDQHIQFQLSAESVGEVYIKSTETGQYLAMDTDGLVYGSQTPNEECLFLERLEENHYNTYISKKHGWFLGIKKNGSVKGTHYGQKAILFLPLPVSSD
B3: SYM6/Δ104-106: SYM6 FGF-1 mutant plus Ala103→Gly/ΔGlu104/ΔLys105/ΔAsn106 (protein, UniProt P05230 16-155, looked up, variant A103G E104* K105* N106*)
Fibroblast growth factor 1: FNLPPGNYKKPKLLYCSNGGHFLRILPDGTVDGTRDRSDQHIQLQLSAESVGEVYIKSTETGQYLAMDTDGLLYGSQTPNEECLFLERLEENHYNTYISKKHGWFVGLKKNGSCKRGPRTHYGQKAILFLPLPVSSD
modifications: SYM6 background mutations
notes: SYM6 FGF-1 mutant plus Ala103→Gly/ΔGlu104/ΔLys105/ΔAsn106

Legend:
[1] = Isothermal equilibrium denaturation in guanidine HCl monitored by CD; type: physicochemical; settings: for Cm / m-value / ΔG0: GuHCl, 298K, CD signal at 227 nm; for ΔΔG: relative to WT*, negative value = more stable
Method: Protein samples were equilibrated overnight in 20 mM N-2-(acetamido)iminodiacetic acid (ADA), 100 mM NaCl pH 6.60 at 298K in 0.1M increments of guanidine HCl (GuHCl). All samples contained a final protein concentration of 25 μM. An Aviv model 202 circular dichroism spectrometer (Proterion Corp., Piscataway, N.J.) equipped with a Peltier controlled temperature unit maintaining a constant temperature of 298K was used for all spectroscopic measurements. For each sample, triplicate scans were collected and averaged. Buffer traces were collected, averaged and subtracted from the sample traces. Data smoothing was performed prior to buffer subtraction using a 5-point Fourier transform filter. The denaturation process was monitored by observing the change in CD signal at 227 nm with increasing GuHCl, according to published references. The general purpose non-linear least squares fitting program DataFit™ (Oakdale Engineering, Oakdale Pa.) was used to fit the change in molar ellipticity at 227 nm versus GuHCl concentration to a six parameter two state model: F=(F0N+SN[D]+F0D+SD[D])e^−((ΔG0+m[D]/RT)/1+e^−((ΔG0+m[D]/RT) (1) where [D] is the denaturant concentration, F0N and F0D are the 0M denaturant molar ellipticity intercepts for the native and denatured states, respectively, and SN and SD are the slopes of the native and denatured state baselines, respectively. ΔG0 and m describe the linear function of the unfolding free energy versus denaturant concentration at 298K. The effect of a given mutation upon the stability of the protein (ΔΔG) was calculated by taking the difference between the Cm values for WT* and mutant and multiplying by the average of the m values, as described by Pace and Scholtz (Measuring the conformational stability of a protein; in Protein Structure: A Practical Approach, Creighton, T. E., ed., pp. 299-321, Oxford University Press, Oxford; 1997): ΔΔG=(CmWT*−Cm mutant)(mWT*+mmutant)/2 (2) Folding Kinetics Measurements.
Previous studies by others of the stability and folding of FGF-1 have been performed by monitoring the fluorescence signal of the single buried Trp 107 in FGF-1. This Trp in the WT* structure is somewhat unusual in that it is more highly quenched in the native state than the denatured. […] We have previously compared the fluorescence and CD spectroscopic response of FGF-1 to denaturation by GuHCl and shown essentially indistinguishable results for both his-tagged and non-his-tagged forms. A tabulation of the mutant thermodynamic data from isothermal equilibrium denaturation, monitored by CD signal, is listed in Table II. The data in this table for the SYM6 mutant are from our previously published isothermal equilibrium denaturation study monitored by fluorescence.

[2] = Folding and unfolding kinetics (Chevron plot, stopped-flow CD, GuHCl); type: physicochemical; settings: for kf: folding rate constant extrapolated to 0M GuHCl; for kf / ku: global Chevron fit; for ΔΔG‡-D / ΔΔG‡-N: in reference to WT*; for ΔΔG‡-D: positive value = decrease in folding activation barrier; for ΔΔG‡-N: positive value = decrease in unfolding activation barrier; for mf: slope of ln(kf) vs GuHCl; for mu: slope of ln(ku) vs GuHCl; for ku: unfolding rate constant extrapolated to 0M GuHCl
Method: Due to signal-to-noise considerations, relatively high protein concentrations (>100 μM) of FGF-1 were required for kinetic studies monitored by CD. At these concentrations protein precipitation occurred in ADA buffer. Therefore, a different buffering system was chosen for the kinetic studies to permit higher protein concentrations without precipitation. Protein samples were dialyzed against 50 mM sodium phosphate, 100 mM NaCl, 10 mM ammonium sulfate, 2 mM DTT, and typically 2.5, 3.0 or 3.8M GuHCl pH 7.5 overnight at 298K prior to data collection (higher concentrations of GuHCl were required to ensure complete denaturation for some stabilizing mutations).
Protein samples were degassed for 10 minutes prior to analysis. Refolding was initiated by a 1:10 dilution of protein solutions into 50 mM sodium phosphate, 100 mM NaCl, 10 mM ammonium sulfate, 2 mM DTT pH 7.5 containing either 0.1M or 0.05M increments of GuHCl up to the midpoint of denaturation. All data were collected using an Aviv model SF305 stopped flow system. Data collection times for each protein were designed to quantify the CD signal over 5 half-lives, or >96% of the total expected amplitude.
Protein samples (300 μM) were dialyzed against 50 mM sodium phosphate, 100 mM NaCl, 10 mM ammonium sulfate, 2 mM DTT pH 7.50 buffer overnight at 298K, and degassed for 10 min prior to data collection. Unfolding was initiated by 1:10 dilution of the native protein into 50 mM sodium phosphate, 100 mM NaCl, 10 mM ammonium sulfate, 2 mM DTT pH 7.5 buffer with final GuHCl concentration in the range of 1.5 to 5.5M in 0.5M increments. The unfolding process was quantified by following the change in CD signal at 227 nm, and data collection times for each protein were designed so as to monitor the CD signal over 3 to 4 half-lives, or >93% of the total expected amplitude.
Triplicate scans were collected for both folding and unfolding kinetic data at each GuHCl buffer condition. In all cases, data from at least three separate experiments were averaged. The kinetic rates and amplitudes versus denaturant concentration were calculated from the time dependent change in CD signal using a single exponential model: I(t)=Aexp(−kt)+C (3) where I(t) is the intensity of CD signal at time t, A is the corresponding amplitude, k is the observed rate constant for the reaction and C is a constant that is the asymptote of the CD signal. Folding and unfolding rate constant data were fit to a global function describing the contribution of both rate constants to the observed kinetics as a function of denaturant (“Chevron” plot): In(kobs)=In(kf0exp(mkfD)+ku0exp(mkuD)) (5) where kf0 and ku0 are the folding and unfolding rate constants, respectively, extrapolated to 0M denaturant, mkf and mku are the slopes of the linear functions relating In(kf) and In(ku), respectively, to D, the denaturant concentration. Changes in activation barriers upon mutation were calculated using a modified version of transition state theory: ΔΔG‡-D=RTIn(kf Mut/kfWT*) and ΔΔG‡-N=RTIn(ku Mut/kuWT*) (6) where kf Mut, ku Mut, kf WT* and ku WT* are the folding and unfolding rates for mutant and WT*, respectively, in water. ΔΔG‡-D, and ΔΔG‡-N are the changes in the activation barrier for folding and unfolding, respectively, between mutation and WT*. A positive value for ΔΔG‡-D or ‡‡G‡-N indicates a decrease in the associated activation barrier energy. Isothermal Titration Calorimetry.
Due to the relatively weak differential CD signal of native and denatured FGF-1, the folding kinetics study required relatively high protein concentrations (>5 mg/ml). […] Thus, the refolding rate constants were not obtainable below certain denaturant concentrations for these mutants. […] The SYM6Δ120-122 mutant is substantially destabilized relative to the WT* protein (see Table II) and presents a relatively short “folding arm” in the Chevron plot, for this reason there is greater uncertainty associated with the folding kinetics determined for this mutant. […]

Molecule | Cm [1] [M] | m-value [1] [kJ/mol M] | ΔG0 [1] [kcal/mol] | ΔΔG [1] [kcal/mol] | kf [2] [s⁻¹] | ΔΔG‡-D [2] [kcal/mol] | ΔΔG‡-N [2] [kcal/mol] | mf [2] [M⁻¹] | mu [2] [M⁻¹] | ku [2] | stability of the actual combination mutant ([1]; relative to the SYM5 protein) [kcal/mol] | folding behavior ([2]; all denaturant concentrations evaluated)
B1 | 0.79 ± 0.01 | 20.0 ± 0.2 | 3.75 ± 0.048 | 1.29 | 17.3 | 0.98 | 1.45 | -9.45 | 0.86 | 7.95 1 × 10^−3 sec^−1 |  | 
B2 | 1.89 ± 0.01 | 18.1 ± 0.7 | 8.17 ± 0.287 | -3.8 | 40.4 | 1.48 | 0.146 | -4.57 | 0.66 | 0.88 1 × 10^−3 sec^−1 | -3.61 | single exponential folding behavior
B3 | 1.21 ± 0.01 | 16.9 ± 0.5 | 4.9 ± 0.12 | -0.669 | 30.1 | 1.31 | 0.935 | -5.41 | 0.94 | 3.33 1 × 10^−3 sec^−1 |  | 
